The Kd is the constant that tells how readily two partners part at equilibrium. Low readings indicate higher affinity, high ones lower affinity.

The values that follow come from US20190352341 (published 2019).

The target of experiment [1] is T1, HSC70 (bovine, UniProt P19120). Briefly: SPR, 25C pH 7.4. For orientation: Surface plasmon resonance follows binding to a sensor surface in real time, without labels.
The target of experiment [2] is T1, HSC70. Nature of the experiment: SPR, 25C pH 7.4. The source holds these as a separate data set.

Read-outs that look alike come from different tables or passages of the source. Square brackets hold non-standard residues; d marks the D form. Ends that are not written are not given here. Met(O) = CS(=O)CC[C@H](N)C(=O)O; pS = N[C@@H](COP(=O)(O)O)C(=O)O

T1 sequence (P19120 2-650): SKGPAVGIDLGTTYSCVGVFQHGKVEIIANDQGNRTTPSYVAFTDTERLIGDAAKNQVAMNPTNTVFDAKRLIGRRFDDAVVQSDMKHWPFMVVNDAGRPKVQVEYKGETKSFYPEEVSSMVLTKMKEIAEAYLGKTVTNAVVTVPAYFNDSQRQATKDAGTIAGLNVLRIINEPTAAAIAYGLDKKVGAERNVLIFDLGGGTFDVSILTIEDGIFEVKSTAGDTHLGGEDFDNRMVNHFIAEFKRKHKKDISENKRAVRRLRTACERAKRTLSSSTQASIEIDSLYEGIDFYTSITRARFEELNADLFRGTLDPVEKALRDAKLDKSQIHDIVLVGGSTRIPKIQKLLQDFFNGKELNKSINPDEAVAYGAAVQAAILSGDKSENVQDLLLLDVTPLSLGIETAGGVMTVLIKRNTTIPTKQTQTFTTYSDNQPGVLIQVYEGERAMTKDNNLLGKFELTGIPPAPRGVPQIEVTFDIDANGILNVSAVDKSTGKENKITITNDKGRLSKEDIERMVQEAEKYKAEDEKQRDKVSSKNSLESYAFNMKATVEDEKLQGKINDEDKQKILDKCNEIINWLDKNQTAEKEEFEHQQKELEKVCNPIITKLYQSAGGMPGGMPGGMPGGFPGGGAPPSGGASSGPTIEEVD

Turning to RIH[Met(O)]VYSKR[pS]GKPRGYAFIEY [P140(MO)], the affinity in experiment [1], expressed as Kd, was 1.91 µM.

With RIHMVYSKR[pS]GKPRGYAFIEY [P140], in experiment [2], the Kd was found to be 6.94 µM.
